Values of other authors, collected in paper PMC2775957.

Tests used:
CMG2 (Homo sapiens) = CMG2 (Homo sapiens) (UniProt P58335)
TEM8 (Homo sapiens) = TEM8 (Homo sapiens) (UniProt Q9H6X2)

For “Protective antigen (from UniProt P13423)”, the Kd (CMG2 (Homo sapiens)) is listed as 1 nM and the Kd (TEM8 (Homo sapiens)) is listed as 10 nM.
